Experimental data published in article doi:10.1101/2021.07.15.452465 (2021).
Where two headings read alike, the source gives them in different places.

B1: A. fumigatus CBC consisting of the subunits HapB^230-299, HapC^40-137 and HapE^47-164 (complex)
chain 1: not shown
chain 2: KEQDRWLPIANVARIMKLALPENAKIAKEAKECMQECVSEFISFITSEASEKCQQEKRKTVNGEDILFAMTSLGFENYAEALKIYLSKYRETQSARGE
chain 3: GTWANVNQGLQGTARDILTTYWQHIINHLESDNHDYKIHQLPLARIKKVMKADPEVKMISAEAPILFAKGCDIFITELTMRAWIHAEDNKRRTLQRSDIAAALSKSDMFDFLIDIVPR

How the values were obtained:
[1] = biological target: B1; experiment: SPR
[2] = biological target: B1; experiment: SPR; remark: listed apart in the source
[3] = biological target: B1; experiment: SPR; remark: listed apart in the source
[4] = biological target: B1; experiment: SPR; remark: listed apart in the source
[5] = biological target: A. fumigatus HapX^24-158 W40A (Aspergillus fumigatus, UniProt Q4WER3 24-158, W40A); experiment: SPR; CBC preformed on AfucccA 37 bp DNA
[6] = biological target: A. fumigatus HapX^24-158 R45A (Aspergillus fumigatus, UniProt Q4WER3 24-158, R45A); experiment: SPR; CBC preformed on AfucccA 37 bp DNA
[7] = biological target: T1, A. fumigatus HapX^24-158 ΔT36-I42 (Aspergillus fumigatus, UniProt Q4WER3 24-158, ΔT36-I42); experiment: SPR; CBC preformed on AfucccA 37 bp DNA
[8] = biological target: A. fumigatus HapX^24-158 K38E (Aspergillus fumigatus, UniProt Q4WER3 24-158, K38E); experiment: SPR; CBC preformed on AfucccA 37 bp DNA
[9] = biological target: T1, A. fumigatus HapX^24-158 ΔT36-I42; experiment: SPR; CBC preformed on Afucyp51A 37 bp DNA
[10] = biological target: A. fumigatus HapX^24-158 R50A (Aspergillus fumigatus, UniProt Q4WER3 24-158, R50A); experiment: SPR; CBC preformed on AfucccA 37 bp DNA

Row | Binder | Kd [1] [nM] | Kd [2] [nM] | Kd [3] [nM] | Kd [4] [nM] | Kd [5] [nM] | Kd [6] [nM] | Kd [7] [nM] | Kd [8] [nM] | Kd [9] [nM] | Kd [10] [nM]
1 | A. fumigatus HapX^24-158 wild type (domain or fragment) SPSPGPGTPGSITSKEWVIPPRPKPGRKPATDTPPTKRKAQNRAAQRAFRERRAARVNELEEQIKKIEDEHEIHIAAFKEQITNLSREVEQCRSEMTWWRDRCHALEKEVSVERSAKEAIVKEFRSSLSDREAVR | 28.3 | 0.34 | 22.7 | 0.9 |  |  |  |  |  | 
2 | B1 |  |  |  |  | 13.2 | 2.86 | 136 | 3.76 | 511 | 3.93
